The results in this text go back to the nanobody polyreactivity screen of Harvey et al. (2022).

The data set can be described thus: yeast display, Sf9 membrane polyspecificity reagent, FACS + sequencing; frameworks hold sequencing errors. An outline of the steps: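 Galactose-induced (36–48 hours) yeast carrying a synthetic nanobody display library were exposed to 10% biotinylated, detergent-solubilized Sf9 membrane reagent at 4 °C for 1 hour. FACS followed streptavidin microbead enrichment, using low and high (top ~1%) gates for expression (anti-HA) and reagent binding (streptavidin). Colony PCR, MiSeq 2 × 250 sequencing and CDR-length filtering followed. Labels for polyreactivity reflect the gate of origin.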
Take “QDQLVESGGGLVQAGGSLRLSCAATGFTFYSYAMGWYRQAPGKERELVAGISRSGGSTYYADSVKGRFTISRDNGKNTVYLQMKSLKPVDTAVYYCNVGLRKKIQNSKYDYWGQGTQVTVSS”: the “polyreactivity (PSR sort gate)” value is given as “high polyreactivity”. For the sequence “QDQLVESGGGLVQAGGSLRLSCAATGSTFPSNAMGWYRQAPGKEREFVATIRFSGGSTYYADSVKGRFTISRVNAKNTVDLQMNSLKPEDTAVYYCAARFYSSAYWYDYWGQGTQVTVSS”, the “polyreactivity (PSR sort gate)” value was “high polyreactivity”. As for “QDQLVESGGGLVQAGGSLRLSCAATGSTYYGYVMGWYRKAPGKETELVAAINLRGDRTYYADSVKGRFTISRDNAKNTVYLQMNSLKPEESSVYYCAARVMFYNSIKRYSWGQGTQVTGSS”, the “polyreactivity (PSR sort gate)” value is “high polyreactivity”. Take “QDQLVESGGGLVQAGGSLRLSCAAYGSTSYTNAMGWYRQAPGKERELVAGITRSGDSTYYADSVKGRFTISRDTAKNTVYLQMKSLKPEDTAVYYCAADIGDYWLGYYTGYYYLGQGTQVTVSS”: the “polyreactivity (PSR sort gate)” value is recorded as “high polyreactivity”. For the sequence “QDQLVESGGGLVQAGGSLRLSCADSGITFSVYAMGWYRQAPGKERELVAAISWNGGRTYYADSVKGRFTISRDNAKNTVYLQMNSLKPEDTAVYYCAAQPWIFSSRLVWTRGYGYWGQGTQVTVSS”, the “polyreactivity (PSR sort gate)” value is recorded as “high polyreactivity”. To “QDQLVESGGGLVQAGGSLRLSCADSGSNFKYNAMGWYRPAPGKERELVAAISTRGSTTNYADSVKGRFTISRDNAKNTVYLQMNSLKPEDTAVYDCNKYANRRDRTRGADYDYWGQGTQVTVSS” belongs “high polyreactivity”. For the sequence “QDQLVESGGGLVQAGGSLRLSCASSGSIFSYNAMGWYRQAPGKEMELVAAISRGGSTYYADSVKGRFTISRDNAKNTVYLQMNSLKPDDTAVYYCAAYVYQLSYPAFEEGYWGQGTQVTVSS”, the “polyreactivity (PSR sort gate)” value is “low polyreactivity”. To “QDQLVESGGGLVQAGGSLRLSCASSGSTFYYKAMGWSRQEPGKERELVARISRSGGSTYADSVKGRFTISRDNAKYTVYLQMNSLKPEDTAVYYCNADAYGTPEFTSYAVRYDYWGQGTQVTVSS” belongs “low polyreactivity”; to “QDQLVESGGGLVQAGGSLRLSCASYGSTFGANAMGWYRQAHGKARELVATISSGGRTYYADSVKGRFTISRDNAKITVYLQMNSLKPEDTAVYYCNAGADYTYVYISVYVLYDYLGQGTQVTVSS”, “low polyreactivity”; to “QDQLVESGGGLVQAGGSLRLSCDASGSIFKSYAMGWFRQAPGKERELVASITYGGGRTYYADSVKGRFTISRDNAKNTVYLQMNSLKPEDTAVYYCATRLFGRSGMYYLRYDYWGQGTQVTVSS”, “high polyreactivity”. For “QDQLVESGGGLVQAGGSLRLSCDASGSIFSPYAMGWYRQAPGKEREFVAAITYSGGRTYYADSVKGRFTISRDNPKNTVYFQMNSLKPEDTAVYYCAATYSSYDHYWFVYWGQATQVTVSS”, the “polyreactivity (PSR sort gate)” value is “low polyreactivity”. Take “QDQLVESGGGLVQAGGSLRLSFAASGRTFDRNTMGWYRQAPGKERELVAAISSSGGSTYYADSVKGRFTISRDNAKNTVYLEMNSLIPEDTAVYYCAVLSRQYFRYGYDYCGQGTQVTVSS”: the “polyreactivity (PSR sort gate)” value was “high polyreactivity”. In the case of “QDQLVESGGGLVQAGGSLRLSGAASGRTFLGYAMGCYRQAPGKERALVAAITWRGGITYYADSVKGRFTISRDNAKNTVYLQMNSLKPEDTAVYYCAARKVGNRYTYYWGQGTQVTVSS”, the “polyreactivity (PSR sort gate)” value is reported as “high polyreactivity”. Take “QDQLVESGGGLVQAGGSLRLSSAASGSTFDSNAMAWYRQAPGKERELVAAISSSGGRTSYADSVKGRFTISRDNAKNTVYLQMNSLKPEDTAVYYCADRFKSVDYVQYYYWGQGTQVTVSS”: the “polyreactivity (PSR sort gate)” value is “low polyreactivity”. To “QDQLVESGGGLVQAGGSLRLTCAASGRTFTHYAMGWYRQAPVKERELVAAISRSGGTTYYADSVKGRFTISLDNAKNTVYLQMNSRKPEDTAVYYCAARWWYRYNYDYWGQGTHVTVSS” belongs “high polyreactivity”.

For “QDQLVESGGGLVQAGGSLRLTCAASGSIFGWYAMGWYRQAPGKEMELFAAITNSGGSTYYADSVKGRFTISRDNAKKTVYIQMNSLKPEETAVYYCAAESWIRRWYGGGKKYDYWGQGTQVTVSS”, the “polyreactivity (PSR sort gate)” value is listed as “high polyreactivity”. With “QDQLVESGGGLVQAGGSLRLTCAASGSTFTTNVMGWYRQAPGKERDLVAAISWSSGSTYYADSVKGRFTISRDNAKNTVYLQMKSLKPEDTAVYYCAARLVIFYPYSRYYYWGQGTHVTVSS”, the “polyreactivity (PSR sort gate)” value is on record as “high polyreactivity”. Regarding “QDQLVESGGGLVQAGGSLSLSCAASGRIFYWYVIGWYRQAPGKEREYVASISWSGGSTYYADSVKGRFTISRDNAKNTVYLQMNSLKPEDTAVYYCNAGSVYTVSLTGHPYDYWGQGTQVTVSS”, the “polyreactivity (PSR sort gate)” value is “low polyreactivity”. With “QDQLVESGGGLVQAGGSLSLSCAASGRIYRYYAMGWSRQAPGKERELVADISSGDSTYYADSVKGRFTMSRDNAKNTVYLQMNSLKPEDTAVYNCNADVYSWVSGKEGDYWGQGTQVTVSS”, the “polyreactivity (PSR sort gate)” value is recorded as “low polyreactivity”. The value for “QDQLVESGGGLVQAGGTLRLSCAASGRTFYLYAMAWYRQAPGKERELVAAISSGASTYYADSVKGSFTISRDIAKNTVYLQMNSLKPDDTAVYYCAAEFCPQWSGYEYWGQGTLVTVSS” was “high polyreactivity”; that for “QDQLVESGGGLVQAGRSLRLSCAASGRIIKLYAMGWYRQAPGKERELVAAISKSGGNTYADSVKGRFTISRDNAKNTVYLQMNSLKPEDTAVYYCAASVQSTSDPFDYWGQGTQVTVSS” was “low polyreactivity”; that for “QDQLVESGGGLVQAGRSLRLSCAASGYTFRFNAMGWYRQAPGKEREFVAAIDFGGAGTYYADSVKGRFTISRDNAKNTVSLQMNSLKPEDTAVYYCNARDGVTTEFDYWGQGTQVNVSS” was “low polyreactivity”. For the sequence “QDQLVESGGGLVQAGVSLRLSCAASGSIIGSYAMGWYREAPAKERELVAAITRSGSRTYYADSVKGRFTISRDNAKNTVYLQINSLKPEDTAVYYCATGYPGGFDYWGLGTQVTVSS”, the “polyreactivity (PSR sort gate)” value is on record as “high polyreactivity”. For “QDQLVESGGGLVQARGSLRLSCAASGRIIKRYVMGWYRQAPGTERELVAAITSGGTNYADSVKGRFTISRDNAKNTVYLQMNSRKPEDTAVYSCAARYLYRAGSNYWGQGTQVTVSS”, the “polyreactivity (PSR sort gate)” value is on record as “high polyreactivity”. On to “QDQLVESGGGLVQARGSLRLSCASSGSICDHYVMGWYRQAPGKERELVAAITSGDRTNYADSVKGRFTISRDKAKNTVYLQMNSLTPEDTEGYYCNADYQSYFYYTTWYYDYDYWGKGTQVTVSS”, for which the “polyreactivity (PSR sort gate)” value is “low polyreactivity”.

In the case of “QDQLVESGGGLVQAVGSLRLSCAASGSIFDVNALGWYRQAPGKERELVAAISQRGTRTYYADSVKGRFTISRDNAKNTVYLQMNSLKPEDTAVYYCNRGGWRQYDSWGQGTQVTVSS”, the “polyreactivity (PSR sort gate)” value is “high polyreactivity”. As to “QDQLVESGGRLVQAVGSLRLTCAASGRIFRGNGLGWYRQAPGKARELVASISSGGRTNYADSVKGRFTISRDNAKNTVYLQMNSLKPEDTAVYYCSATKSPSLYRWLYDYWGQGTQVTVSS”, the “polyreactivity (PSR sort gate)” value is “high polyreactivity”. With “QDQLVESGRGLFQAGGSLRLSCAASGSTLWANAMGWYRQAPGKERELVAAISWRGGRTYYADSVKGRFTISRDNAKNTVYLQMNSLKPEVTAVYYCNAVSYYRPRTDYWGQGTLVTVSS”, the “polyreactivity (PSR sort gate)” value is “high polyreactivity”.

In the case of “QDQLVESGRGLVQAGGSLRLSCAASGFIFYQNAMGWYRQAPGKERELVAAISWRSGRTYYADSVKGRFTISRDNAKNTVYLQMNSLKPEDTAVYYCNAVRYPSYSPEYGSWGQGTEVTVSS”, the “polyreactivity (PSR sort gate)” value is “high polyreactivity”. On to “QDQLVESGVGLVQAGGSLRLSCAASGIIIYRNTLGWYRQAPGKERELVAAIRRGGNTYYADSVKGRFTISRDNAKNTVYLQMNSLKPEDSAVYYCAASAGPRASYYYWGQGTQVTVSS”, for which the “polyreactivity (PSR sort gate)” value is recorded as “high polyreactivity”. Consider “QDQLVESRGALVQAGGSLRLSCAASGIIFGRNAMGWYRQAPRKERELVAGITRRGARTYYADSVKGRFTISRDNAKNTVYFQMNILKPEDTAVYYCAAVGPYRWYDYWGQGTQVTVSS”, for which the “polyreactivity (PSR sort gate)” value is reported as “high polyreactivity”. Turning to “QDQLVESRGGEVQAGGSRRLRCAASGLTFLYNAMGWYRQAPGKERELVAAISQSAGSTYYADSVKGRFTISRDTAKNTVYLQLNSLKPEETAVYYFAADWDTPDLVIYDYWGQGTQVTLSS”, the “polyreactivity (PSR sort gate)” value is “low polyreactivity”. “QDQLVESRGGIVQAVRSLRLSSAASGSTYRNYAMGWYRQAPGKERELVAAISGSGGRTNYADSVKGRFTISRDNAKNTVYLQMNSLKQEDTAVYYCNARFPDWALSEISNSTTYGYWGQGTQVNVSS”: the “polyreactivity (PSR sort gate)” value is on record as “low polyreactivity”. As for “QDQLVESRGGLVQAGGSLRLSCAASGFTFGRYAMGWYRQAPGKERELVAVITSSGGRTYYADSVKGRFTISRDNAKNTVYLQMNSLKPEDTAVYYCHKYPLRLYGYDYWGQGTQVTVSS”, the “polyreactivity (PSR sort gate)” value is recorded as “high polyreactivity”. With “QDQLVESRGGLVQAGGSLRLSCAASGRIFLTNAMGWDRKAPGKERELVAAITSGGSTYYADSVKGRFTISRDNAKNTVFLQMNSVKPEDTAVYYCNADTDRYCPYEYDYWGQGTQVTVSS”, the “polyreactivity (PSR sort gate)” value is on record as “low polyreactivity”. “QDQLVESVGGLDQAGGSLRLSCAASGFIFGANAIGWYRQATGKEREMVAAISSSGGRYELRRSVKGRFTISRDNAKNTVYLQMNSLKPEDTAVYYCATPYPTGRPRHYSWGQGTQVTVSS”: the “polyreactivity (PSR sort gate)” value was “high polyreactivity”.

For “QDQLVESVGGLVQAGGSLRLSCAASGRTFGRYPMGSYIEAPGKEREMVAAIRSGGSTYYADSVKGRFTISRDNAKNTVYLLMNSLKPEDTAVYYCAADIDRHLTGFAYYRLDYWGQGTQVTVSS”, the “polyreactivity (PSR sort gate)” value was “low polyreactivity”. For the sequence “QDQLVESVGGLVQAGVSLRLSCAASGSTLRKYAMGWYRQAPGKESELVAAISNSGGGTYYADSVKGRFTISRDNAKNTVYLQMNSLKPEDTAVYYCAARYGPSYGYGLYYPRRDYWGQGTQVTVSS”, the “polyreactivity (PSR sort gate)” value is “high polyreactivity”. For the sequence “QDQLVESWGGLVQAGGSLRLICAASGFIFRSYAMGWYRQAPGKERELVAAITYSGGRTYYADSVKGRFTISRDNAKNTVYLQMNSLKPEDTAVYYCAAETRVDFYWGQGTQVTVSS”, the “polyreactivity (PSR sort gate)” value is “high polyreactivity”. Regarding “QDQLVESWGGLVQAGGSLRLSCAASGFTFRNNAMGWYRHAPWKERDLVASITARGGSTYYADTVKGRFTISRDNAINTVYVQLNILKTEDTAVYYSATDDYTWRRHPWYAGYDSWGQGTQVTVSS”, the “polyreactivity (PSR sort gate)” value was “low polyreactivity”.
